Measurements published in patent publication US20060246421A1.

Target: wild-type NS3 protein of hepatitis C virus (hepatitis C virus) (UniProt Q9WMX2)
Experiment: cell-based or functional assay

Substance: D290A NS3 (ATPase-deficient mutant NS3 protein) (from UniProt Q9WMX2 1027-1657)
- fold decrease in activity of the HCV-Luc replicon (luciferase) in Huh-7 cells, 48 h: 9 fold
